From paper PMC3794858, “NECAP 1 Regulates AP-2 Interactions to Control Vesicle Size, Number, and Cargo During Clathrin-Mediated Endocytosis” (PLoS Biology, 2013)
Where no end group is shown, it is not given here.

T1: 15N-labeled PHear (NECAP 1 PHear domain, GST cleaved) (mouse, UniProt Q9CR95 1-133)
T1 chain: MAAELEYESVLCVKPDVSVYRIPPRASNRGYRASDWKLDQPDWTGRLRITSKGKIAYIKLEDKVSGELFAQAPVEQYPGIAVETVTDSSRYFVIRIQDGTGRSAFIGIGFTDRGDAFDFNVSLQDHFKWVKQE

T2: 15N-labeled PHear (NECAP 1 PHear domain, GST cleaved) (mouse, UniProt Q9CR95 1-133)
T2 construct: NECAP 1, PHear domain, residues 1-133; Uniformly 15N-labelled for NMR; source: E. coli BL21, purified (GST fusion cleaved with thrombin, S75 gel filtration)
T2 sequence (looked up): T1 chain

B1: β2-linker peptide (Ac-SQGDLLGDLLNLDLPPVN) (peptide)
peptide: Ac-SQGDLLGDLLNLDLPPVN
notes: peptide from the linker of β2-adaptin; the printed peptide has no G there; also called unlabeled β2-linker; source: synthetic peptide (Sheldon Biotechnology Center, McGill University), HPLC purified
B2: AP180 FxDxF-motif peptide (Ac-VDIFGDAFAAS) (peptide)
peptide: Ac-VDIFGDAFAAS
notes: peptide derived from AP180; also called AP-180 peptide; FxDxF-motif peptide derived from AP180; source: synthetic peptide (Sheldon Biotechnology Center, McGill University), HPLC purified

Experiments:
[1] = target: T1, 15N-labeled PHear (NECAP 1 PHear …); assay: NMR; I106 peak
[2] = target: T1, 15N-labeled PHear (NECAP 1 PHear …); assay: NMR; L47 peak
[3] = target: T2, 15N-labeled PHear (NECAP 1 PHear …); assay: NMR titration; 1H-15N HSQC of 15N-labeled PHear (0.15 mM) titrated with unlabeled peptide, 30°C, 25 mM sodium phosphate pH 7.2, 75 mM NaCl, 0.5 mM EDTA, 3 mM DTT; conditions: both partners purified

| Binder | Kd [1] | Kd [2] | Kd [3] | binding result [3] |
| --- | --- | --- | --- | --- |
| B1 | 420 µM | 540 µM | 480 µM |  |
| B2 |  |  |  | binds |
